Results on four molecules are retold here after patent US20210324099A1 (Chugai, published 2021).

The target in assay [1] is human FcRn (human, UniProt P55899 24-290; P61769 21-119, limits assumed). In words: SPR 25C pH 6.0, steady state.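 Further: antibody captured on chip via anti-human Fab-lambda ligand, human FcRn injected as analyte in 50 mM phosphate buffer with 150 mM NaCl and P20.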
For assay [2], the target named is T1, hFcgRIIb (human, UniProt P31994 43-217).
T1 construct: extracellular domain; also called human FcγRIIb
T1 sequence (looked up): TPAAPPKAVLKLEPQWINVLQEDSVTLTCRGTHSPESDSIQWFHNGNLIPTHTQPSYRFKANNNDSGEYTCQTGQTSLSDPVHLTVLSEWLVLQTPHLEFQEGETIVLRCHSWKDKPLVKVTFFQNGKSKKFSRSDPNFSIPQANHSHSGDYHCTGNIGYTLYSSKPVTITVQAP
In words: SPR 25C.

Assay [3] has as its target T2, hFcgRIIIaV (human, UniProt P08637 17-208).
T2 construct: extracellular domain; also called human FcγRIIIa allotype V158
The experiment in a line: SPR 25C.

In assay [4] the target is T3, hFcgRIIaH (human, UniProt P12318 34-217).
T3 construct: extracellular domain; also called human FcγRIIa type H (H131)
T3 sequence (looked up): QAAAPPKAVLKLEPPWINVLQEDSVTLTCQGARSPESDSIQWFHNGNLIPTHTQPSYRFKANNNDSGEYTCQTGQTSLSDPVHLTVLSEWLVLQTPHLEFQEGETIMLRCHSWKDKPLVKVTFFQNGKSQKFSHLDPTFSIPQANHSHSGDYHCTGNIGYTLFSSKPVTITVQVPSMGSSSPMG
In words: SPR 25C.

Assay [5] addresses T4, hFcgRIa (human, UniProt P12314 16-292).
T4 construct: extracellular domain; also called human FcγRIa; FcγRI
In words: SPR 25C.

In assay [6] the target is T5, hFcgRIIaR (human, UniProt P12318 34-217).
T5 construct: extracellular domain; also called human FcγRIIa type R (R131)
T5 sequence (looked up): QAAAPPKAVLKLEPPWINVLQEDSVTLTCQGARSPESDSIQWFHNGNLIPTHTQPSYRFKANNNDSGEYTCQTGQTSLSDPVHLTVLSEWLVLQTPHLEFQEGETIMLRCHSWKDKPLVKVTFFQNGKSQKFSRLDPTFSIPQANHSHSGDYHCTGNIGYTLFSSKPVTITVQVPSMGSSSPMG
In words: SPR 25C.

For assay [7], the target named is T6, hFcgRIIIaF (human, UniProt P08637 17-208).
T6 construct: extracellular domain; also called human FcγRIIIa allotype F158
The experiment in a line: SPR 25C.

Assay [8] addresses T1, hFcgRIIb. The experiment in a line: SPR 25C; relative to A375-G1T3/B167-Lamlib.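 Further: SPR with antibody captured on an anti-human Fab-lambda chip, human FcγR analyte at 8 nM for FcγRIa or 1000 nM for the others, pH 7.4, FcγR RU per captured antibody unit.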
Description: (§1) Biacore T200 (GE Healthcare) was used to evaluate the binding activity to the respective human Fcγ receptor (hereafter referred to as FcγR). Measurement was performed at 25° C. using 50 mM phosphate, 150 mM NaCl, 0.05 w/v %-P20, pH 7.4 as buffer. About 1000 RU of antibody was captured using a sensor chip immobilized with CaptureSelect™ Human Fab-lambda Kinetics Biotin Conjugate (Thermo Fisher Scientific) as a molecule for ligand capturing. Human FcγR was diluted to 8 nM for FcγRIa and 1000 nM for other FcγR in the measurement buffer, and it was interacted to the captured antibody. The binding activity of each antibody to FcγR was assessed by calculating the binding amount of FcγR (RU) per unit amount of antibody using Biacore T200 Evaluation Software 2.0.
In assay [9] the target is T2, hFcgRIIIaV. The experiment in a line: SPR 25C; relative to A375-G1T3/B167-Lamlib.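 Further: SPR with antibody captured on an anti-human Fab-lambda chip, human FcγR analyte at 8 nM for FcγRIa or 1000 nM for the others, pH 7.4, FcγR RU per captured antibody unit.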
Description: as §1
Assay [10] addresses T3, hFcgRIIaH. In words: SPR 25C; relative to A375-G1T3/B167-Lamlib.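 Further: SPR with antibody captured on an anti-human Fab-lambda chip, human FcγR analyte at 8 nM for FcγRIa or 1000 nM for the others, pH 7.4, FcγR RU per captured antibody unit.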
Description: as §1
Assay [11] addresses T4, hFcgRIa. In words: SPR 25C; relative to A375-G1T3/B167-Lamlib.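 Further: SPR with antibody captured on an anti-human Fab-lambda chip, human FcγR analyte at 8 nM for FcγRIa or 1000 nM for the others, pH 7.4, FcγR RU per captured antibody unit.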
Description: as §1
Assay [12] addresses T5, hFcgRIIaR. In words: SPR 25C; relative to A375-G1T3/B167-Lamlib.
Description: as §1
In assay [13] the target is T6, hFcgRIIIaF. The experiment in a line: SPR 25C; relative to A375-G1T3/B167-Lamlib.
Description: as §1
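Wherever binding per 1RU of antibody is given: biacore SPR with antibody captured on an anti-human Fab lambda chip, human FcγR injected at 1000 nM (FcγRIa at 8 nM) in pH 7.4 phosphate buffer.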

Sequence of human FcRn (P55899 24-290 limits assumed, chain 1 of 2): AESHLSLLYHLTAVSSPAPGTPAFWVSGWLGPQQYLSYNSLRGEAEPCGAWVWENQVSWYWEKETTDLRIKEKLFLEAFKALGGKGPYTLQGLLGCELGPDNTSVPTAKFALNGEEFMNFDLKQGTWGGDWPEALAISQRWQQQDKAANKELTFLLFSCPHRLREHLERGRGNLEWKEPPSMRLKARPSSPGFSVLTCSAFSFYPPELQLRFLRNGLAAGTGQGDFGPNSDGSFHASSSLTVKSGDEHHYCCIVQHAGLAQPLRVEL
Sequence of human FcRn (P61769 21-119 limits assumed, chain 2 of 2): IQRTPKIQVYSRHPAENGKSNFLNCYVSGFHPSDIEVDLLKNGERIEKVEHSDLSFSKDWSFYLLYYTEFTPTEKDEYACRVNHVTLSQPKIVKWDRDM
T4 sequence (P12314 16-292): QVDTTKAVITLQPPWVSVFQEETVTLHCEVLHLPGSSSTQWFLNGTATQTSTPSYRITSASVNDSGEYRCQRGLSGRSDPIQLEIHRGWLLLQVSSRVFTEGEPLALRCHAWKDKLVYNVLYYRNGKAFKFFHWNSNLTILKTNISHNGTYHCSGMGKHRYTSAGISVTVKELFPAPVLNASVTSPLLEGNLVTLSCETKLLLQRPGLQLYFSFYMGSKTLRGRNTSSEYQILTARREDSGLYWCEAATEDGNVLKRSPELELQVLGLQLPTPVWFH
T6 sequence (P08637 17-208): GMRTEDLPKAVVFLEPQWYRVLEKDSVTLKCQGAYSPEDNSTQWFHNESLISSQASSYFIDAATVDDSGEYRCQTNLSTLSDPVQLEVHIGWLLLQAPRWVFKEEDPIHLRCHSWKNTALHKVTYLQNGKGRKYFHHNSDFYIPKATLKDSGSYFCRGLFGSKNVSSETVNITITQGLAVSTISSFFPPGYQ
T2 sequence (P08637 17-208 F176V): as the sequence (P08637 17-208) above, with F160V counted along it

B1: A375-SCF040/B167-Lamlib (antibody, human IgG1, lambda)
heavy: EVQLVESGGGLVKPGGSLRLSCAASGFTFSTFTMNWVRQAPGKGLEWVSSISSKSTYIEYADSFKVRFTISRDNAKNSLYLQMNSLRAEDTAVYYCARYGAKNFLNWVFDYWGQGTLVTVSSASTKGPSVFPLAPSSKSTSGGTAALGCLVKDYFPEPVTVSWNSGALTSGVHTFPAVLQSSGLYSLSSVVTVPSSSLGTQTYICNVNHKPSNTKVDKKVEPKSCDKTHTCPPCPAPELWNGPSVFLFPPKPKDTLMISRTPEVTCVVVDVSDEDPEVKFNWYVDGVEVHNAKTKPREELYNSTYRVVSVLTVLHQDWLNGKEYKCKVSNTALPKPIEKTISKAKGQPREPQVYTLPPSREEMTKNQVSLTCLVKGFYPSDIAVEWESNGQPENNYKTTPPVLDSDGSFFLYSKLTVKKSRWQQGNVFSCSVMHEALHNHYTQKSLSLSP
light: QSALTQPPSASGSPGQTVTISCTGTRYDVGYYEYVSWYQQHPGKAPKLMIYETSKRLSGVPDRFSGSKSGNTASLTVSGLQAEDEADYYCSSYRYEHQVSFGGGTKLTVLGQPKAAPSVTLFPPSSEELQANKATLVCLISDFYPGAVTVAWKADSSPVKAGVETTTPSKQSNNKYAASSYLSLTPEQWKSHRSYSCQVTHEGSTVEKTVAPTECS
notes: copies: 2 + 2
In general, Kd refers to a measure of binding affinity in units of concentration. B1 yielded a Kd in assay [1] of 1460 nM. The “binding per 1RU of antibody” value stood at 0.0465 RU in assay [2]; 0.0013 RU in [3]; 0.0454 RU in [4]; 0.0016 RU in [5]; 0.0446 RU in assay [6]; 0.001 RU in [7]. Moreover, the relative binding amount in [8] is 4.24; in [9], 0.02; in assay [10] it was 0.8; in assay [11], 0.02; in [12], 0.96; in [13], 0.05.

B2: A375-SCF042a/B167-Lamlib (antibody, human IgG1, lambda)
heavy: EVQLVESGGGLVKPGGSLRLSCAASGFTFSTFTMNWVRQAPGKGLEWVSSISSKSTYIEYADSFKVRFTISRDNAKNSLYLQMNSLRAEDTAVYYCARYGAKNFLNWVFDYWGQGTLVTVSSASTKGPSVFPLAPSSKSTSGGTAALGCLVKDYFPEPVTVSWNSGALTSGVHTFPAVLQSSGLYSLSSVVTVPSSSLGTQTYICNVNHKPSNTKVDKRVEPKSCDKTHTCPPCPAPELLNGPSVFLFPPKPKDTLMISRTPEVTCVVVDVSDEDPEVKFNWYVDGVEVHNAKTKPREEQYNSTYRVVSVLTVLHQDWLNGKEYKCKVSNKALPKPIEKTISKAKGQPREPQVYTLPPSREEMTKNQVSLTCLVKGFYPSDIAVEWESNGQPENNYKTTPPVLDSDGSFFLYSKLTVKKSRWQQGNVFSCSVMHEALHNHYTQKSLSLSP
light: QSALTQPPSASGSPGQTVTISCTGTRYDVGYYEYVSWYQQHPGKAPKLMIYETSKRLSGVPDRFSGSKSGNTASLTVSGLQAEDEADYYCSSYRYEHQVSFGGGTKLTVLGQPKAAPSVTLFPPSSEELQANKATLVCLISDFYPGAVTVAWKADSSPVKAGVETTTPSKQSNNKYAASSYLSLTPEQWKSHRSYSCQVTHEGSTVEKTVAPTECS
notes: copies: 2 + 2
With B2, the Kd in assay [1] worked out at 1490 nM. Further, the “binding per 1RU of antibody” value in [2] was determined as 0.0393 RU; in assay [3], 0.0014 RU; in [4], 0.0522 RU; in [5], 0.0396 RU; in assay [6], 0.0327 RU; in assay [7] it was 0.0003 RU. In addition, the relative binding amount was found to be 3.59 in assay [8]; 0.02 in assay [9]; 0.92 in [10]; 0.49 in assay [11]; 0.71 in assay [12]; 0.01 in assay [13].

B3: A375-SCF041a/B167-Lamlib (antibody, human IgG1, lambda)
heavy: EVQLVESGGGLVKPGGSLRLSCAASGFTFSTFTMNWVRQAPGKGLEWVSSISSKSTYIEYADSFKVRFTISRDNAKNSLYLQMNSLRAEDTAVYYCARYGAKNFLNWVFDYWGQGTLVTVSSASTKGPSVFPLAPSSKSTSGGTAALGCLVKDYFPEPVTVSWNSGALTSGVHTFPAVLQSSGLYSLSSVVTVPSSSLGTQTYICNVNHKPSNTKVDKRVEPKSCDKTHTCPPCPAPELLNGPSVFLFPPKPKDTLMISRTPEVTCVVVDVSDEDPEVKFNWYVDGVEVHNAKTKPREEQYNSTYRVVSVLTVLHQDWLNGKEYKCKVSNKALPKPIEKTISKAKGQRREPQVYTLPPSREEMTKNQVSLTCLVKGFYPSDIAVEWESNGQPENNYKTTPPVLDSDGSFFLYSKLTVDKSRWQQGNVFSCSVMHEALHNHYTQKSLSLSP
light: QSALTQPPSASGSPGQTVTISCTGTRYDVGYYEYVSWYQQHPGKAPKLMIYETSKRLSGVPDRFSGSKSGNTASLTVSGLQAEDEADYYCSSYRYEHQVSFGGGTKLTVLGQPKAAPSVTLFPPSSEELQANKATLVCLISDFYPGAVTVAWKADSSPVKAGVETTTPSKQSNNKYAASSYLSLTPEQWKSHRSYSCQVTHEGSTVEKTVAPTECS
B3 returned a Kd in assay [1] of 1100 nM. The “binding per 1RU of antibody” value is 0.0433 RU in assay [2]; 0.0022 RU in assay [3]; 0.0571 RU in assay [4]; 0.0446 RU in assay [5]; 0.0376 RU in assay [6]; 0.0009 RU in assay [7]. For the same molecule, the relative binding amount is 3.95 in assay [8]; 0.03 in [9]; 1.01 in assay [10]; 0.55 in assay [11]; 0.81 in [12]; 0.04 in assay [13].

B4: A375-SCF041aPh/B167-Lamlib (antibody, human IgG1, lambda)
heavy: EVQLVESGGGLVKPGGSLRLSCAASGFTFSTFTMNWVRQAPGKGLEWVSSISSKSTYIEYADSFKVRFTISRDNAKNSLYLQMNSLRAEDTAVYYCARYGAKNFLNWVFDYWGQGTLVTVSSASTKGPSVFPLAPSSKSTSGGTAALGCLVKDYFPEPVTVSWNSGALTSGVHTFPAVLQSSGLYSLSSVVTVPSSSLGTQTYICNVNHKPSNTKVDKRVEPKSCDKTHTCPPCPAPELWNGPSVFLFPPKPKDTLMISRTPEVTCVVVDVSDEDPEVKFNWYVDGVEVHNAKTKPREEQYNSTYRVVSVLTVLHQDWLNGKEYKCKVSNKALPKPIEKTISKAKGQRREPQVYTLPPSREEMTKNQVSLTCLVKGFYPSDIAVEWESNGQPENNYKTTPPVLDSDGSFFLYSKLTVDKSRWQQGNVFSCSVMHEALHNHYTQKSLSLSP
light: QSALTQPPSASGSPGQTVTISCTGTRYDVGYYEYVSWYQQHPGKAPKLMIYETSKRLSGVPDRFSGSKSGNTASLTVSGLQAEDEADYYCSSYRYEHQVSFGGGTKLTVLGQPKAAPSVTLFPPSSEELQANKATLVCLISDFYPGAVTVAWKADSSPVKAGVETTTPSKQSNNKYAASSYLSLTPEQWKSHRSYSCQVTHEGSTVEKTVAPTECS
With B4, the Kd in assay [1] worked out at 1130 nM. In addition, the “binding per 1RU of antibody” value in assay [2] came to 0.035 RU; in [3], 0.0005 RU; in [4] it was 0.0371 RU; in assay [5], 0.0013 RU; in [6] it was 0.0371 RU; in assay [7], 0.0007 RU. Also, the relative binding amount in assay [8] turned out to be 3.2; in assay [9], 0.01; in assay [10], 0.65; in assay [11], 0.02; in [12], 0.8; in assay [13], 0.03.
